Test results: patent WO2015070078A1
Blank lines part the entries; values can stand above or below the substance they belong to.

How the values were obtained:
[1] = molecular target: human FcγRIIIA (CD16A), variant at 158 not stated (human) (UniProt P08637); test: cell-based or functional assay; design: unit not given beside the values
[2] = molecular target: mouse FcγRIV (mouse); test: ELISA, recombinant mouse FcγRIV coated on the plate
[3] = molecular target: mouse FcγRIIb (mouse) (UniProt P08101); test: ELISA, recombinant mouse FcγRIIb coated on the plate
[4] = molecular target: human FcγRIIIa 158F variant (human) (UniProt P08637); test: flow cytometry titration on CHO cells expressing human FcγRIIIa-158F
[5] = molecular target: human FcγRIIIa (158V variant) (human) (UniProt P08637); test: flow cytometry titration on CHO cells expressing human FcγRIIIa-158V
[6] = molecular target: human FcγRIIb (human) (UniProt P31994); test: flow cytometry on CHO cells expressing human FcγRIIb; antibody as dimeric complex with PE-conjugated Fab'2 anti-human Fab'2

- EC50 of reverse signaling through FcγRIIIA (CD16A): NFAT-luciferase reporter in Jurkat cells with RMF-pulsed T2 cells [1]: 0.88
Substance: ESK1 (antibody)

- EC50 of reverse signaling through FcγRIIIA (CD16A): NFAT-luciferase reporter in Jurkat cells with RMF-pulsed T2 cells [1]: > 10000
Substance: ESK1 containing D265A/P329A mutations in the Fc domain (antibody)

- higher affinity (against ESK1) [2]: 51%
- affinity as a fraction of that of ESK1 [3]: 0.5 fold
- fold higher affinity (against normally glycosylated ESK1) [4]: 3.5 fold
- higher affinity (against normally glycosylated ESK1) [5]: 80%
- reduced affinity (against normally glycosylated ESK1) [6]: 50%
Substance: ESKM (produced in MAGE 1.5 CHO cells, no detectable fucose or galactose) (antibody)

- EC50 of reverse signaling through FcγRIIIA (CD16A): NFAT-luciferase reporter in Jurkat cells with RMF-pulsed T2 cells [1]: 0.17
Substance: ESKM having 100% reduced fucose content relative to ESK1 wildtype IgG1 (GlymaxX technology, CHO cells) (antibody)
